# According to paper PMC2474558 (Biochemical Journal, 2008):
# B1: hCXCR2–GFP^2 (receptor)
# chain: MEDFNMESDSFEDFWKGEDLSNYSYSSTLPPFLLDAAPCEPESLEINKYFVVIIYALVFLLSLLGNSLVMLVILYSRVGRSVTDVYLLNLALADLLFALTLPIWAASKVNGWIFGTFLCKVVSLLKEVNFYSGILLLACISVDRYLAIVHATRTLTQKRYLVKFICLSIWGLSLLLALPVLLFRRTVYSSNVSPACYEDMGNNTANWRMLLRILPQSFGFIVPLLIMLFCYGFTLRTLFKAHMGQKHRAMRVIFAVVLIFLLCWLPYNLVLLADTLMRTQVIQETCERRNHIDRALDATEILGILHSCLNPLIYAFIGQKFRHGLLKILAIHGLISKDSLPKDSRPSFVGSSSGHTSTTL
# Molecular target: hDOP–Renilla luciferase (human, UniProt P41143 1-372)
# Sequence (P41143 whole entry): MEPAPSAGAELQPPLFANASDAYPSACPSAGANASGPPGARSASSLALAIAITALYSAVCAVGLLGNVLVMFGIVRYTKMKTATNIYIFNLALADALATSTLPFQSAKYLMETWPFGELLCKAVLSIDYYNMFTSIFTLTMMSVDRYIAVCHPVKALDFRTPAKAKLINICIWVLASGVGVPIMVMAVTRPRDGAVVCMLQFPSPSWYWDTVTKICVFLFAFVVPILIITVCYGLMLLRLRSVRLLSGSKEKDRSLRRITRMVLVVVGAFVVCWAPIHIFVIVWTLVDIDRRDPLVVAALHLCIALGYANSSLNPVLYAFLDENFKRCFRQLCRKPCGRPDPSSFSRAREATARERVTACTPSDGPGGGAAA
# Experiment: FRET or BRET
binder,measurement,value
B1,BRET50,0.34 ± 0.02 [acceptor] to [donor] ratio
